Experimental data from patent US20250002575A1 (Genentech, published 2025).

T1: reduced recombinant human IL-33 (His-tagged, amino acids 112-270) (human, UniProt O95760 112-270)
T1 construct: range 112-270; Expressed in E. coli; kept in the reduced state (all four cysteines free) with TCEP; also called reduced hIL-33; hIL-33
T1 sequence: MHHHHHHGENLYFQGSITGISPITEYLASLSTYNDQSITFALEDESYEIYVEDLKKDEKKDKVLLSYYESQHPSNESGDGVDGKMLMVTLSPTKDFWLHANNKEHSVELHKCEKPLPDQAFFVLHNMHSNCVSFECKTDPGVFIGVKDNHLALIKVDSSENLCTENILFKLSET


Key:
[1] = biological target: T1, reduced recombinant human IL-33 …; assay: SPR (Biacore 8K), antibody captured on Protein A chip, reduced hIL-33 as analyte, multi-cycle kinetics, 25 C
Experimental: (§1) A Series S Protein A sensor chip (Cytiva, Marlborough, MA, USA) was used to capture recombinant chimeric human IgG versions of anti-hIL-33 Abs using a BIACORE® 8 k instrument (Cytiva, Marlborough, MA, USA). Antibody binding to human histidine-tagged hIL-33 (Genentech, South San Francisco, CA, USA) was measured using multi-cycle kinetics. Sensorgrams were recorded using an injection time of 2 minutes with a flow rate of 30 μL/min, at 25° C. or 37° C., and with a running buffer of 10 mM N-2-hydroxyethylpiperazine-N′-2-ethanesulfonic acid (HEPES), pH 7.4, 150 mM sodium chloride (NaCl), 3 mM ethylenediaminetetraacetic acid (EDTA), and 0.005% TWEEN® 20. After injection, dissociation of hIL-33 from the antibody was monitored for 10 minutes in running buffer. The surface was regenerated between binding cycles with a 30 μL injection of 10 mM Glycine hydrochloric acid (HCl) pH 1.5. After subtraction of a blank containing running buffer only, sensorgrams were analyzed using a 1:1 Langmuir binding model with software supplied by the manufacturer to calculate the kinetics and binding constants.

[2] = biological target: T1, reduced recombinant human IL-33 …; assay: SPR (Biacore), antibody captured, reduced hIL-33 as analyte
Experimental: as §1

Binder	Kd [1] [nM]	koff [1] [s⁻¹]	kon [1] [M⁻¹ s⁻¹]	Kd [2] [nM]
rat/human chimeric anti-hIL-33 3F10 MAb (antibody, human IgG1, kappa, V domains shown, Rat variable domains on human IgG1/kappa constant regions; also called clone 3F10; capture MAb) VH: QVQLEESGPGLVQPSQTLSLTCTVSGFSLTSQNVHWVRQPPGKGLEWMGRMRFNGDTSYNSTLKSRLSISRDTSKNQVFLRLNSLQTDDTGTYYCARQRDNYGSYYFDDWGQGIMVTVSS VL: DTVLTQSPALAVSPGERVTISCRASESVLTLLNWYQQKPGQHPKLLIYLASHLESGVPARFSGRGSGTDFTLTIDPVEADDTASYYCQQSWIDPWTFGGGTTLELKR	0.777	0.000243	312000	0.487
rat IgG2a anti-human IL-33 clone 15.21C7 (antibody, V domains shown, also called rat anti-reduced hIL-33 15.21C7 IgG2a) VH: EVQLVESGGGLVQPGTSLKLSCVASGFTFSDFWMSWVRQTPGKTMEWIADIKNDGSHTKYAPSLQNRFTISRDNAKNTLYLEVTDVRSEDTATYYCTRVGGTYTAYYWGHGVMVTVSS VL: DIQMTQTPSSMPASLGERVTLSCRTSQGINTYLNWYQQKPDGTITPLIHYTSNLESGVPSRFSGSGFGTDYFLTISSLEPEDFAMYFCQQYASSPWTFGGGTKLELKK	0.291	0.000146	501000	0.338
